In patent US20230277625A1 (SIMCHA IL 18, published 2023):
Numbering of substitutions follows the chain as printed.

Tests used:
[1] = target: T1, Human IL-18BP (amino acids 31-194), biotinylated (human, UniProt O95998 31-194, biotin on the AviTag (BirA ligase) where used biotinylated); assay: on-yeast binding isotherms; 20 µM used for NBD; yeast-displayed variant; ratio computed with 20 µM put in for NBD
T1 construct: Soluble decoy receptor; also called hIL-18BP; recombinant IL-18BP
T1 sequence: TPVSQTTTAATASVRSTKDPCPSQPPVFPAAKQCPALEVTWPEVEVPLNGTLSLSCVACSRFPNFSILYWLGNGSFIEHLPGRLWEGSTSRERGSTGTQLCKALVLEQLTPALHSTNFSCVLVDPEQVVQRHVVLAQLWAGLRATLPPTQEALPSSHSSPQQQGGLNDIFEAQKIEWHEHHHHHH

[2] = target: T1, Human IL-18BP (amino acids 31-194), …; assay: on-yeast binding isotherms; KD ratio relative to WT IL-18; yeast-displayed variant; ratio normalized to WT, from the 20 µM placeholder
[3] = target: T1, Human IL-18BP (amino acids 31-194), …; assay: on-yeast binding isotherms; 20 µM used for NBD
[4] = target: T1, Human IL-18BP (amino acids 31-194), …; assay: on-yeast binding isotherms; KD ratio relative to WT IL-18
[5] = target: T2, Human IL-18Rα ectodomain (amino acids 19-329), biotinylated (human, UniProt Q13478 19-329, biotin on the AviTag (BirA ligase)); assay: SPR
T2 construct: range 19-329; Secreted from insect cells (gp67 signal peptide removed); also called hIL-18Rα; hIL18Rα
T2 sequence: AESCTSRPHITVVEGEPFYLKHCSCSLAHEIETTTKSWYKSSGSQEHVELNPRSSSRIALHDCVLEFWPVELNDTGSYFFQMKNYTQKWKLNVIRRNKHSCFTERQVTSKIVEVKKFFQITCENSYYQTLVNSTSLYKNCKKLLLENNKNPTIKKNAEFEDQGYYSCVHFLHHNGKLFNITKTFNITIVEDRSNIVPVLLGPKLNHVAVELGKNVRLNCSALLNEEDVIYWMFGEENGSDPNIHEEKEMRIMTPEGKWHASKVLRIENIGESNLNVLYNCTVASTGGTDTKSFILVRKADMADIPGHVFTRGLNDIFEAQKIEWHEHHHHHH

[6] = target: T2, Human IL-18Rα ectodomain (amino acids …); assay: SPR (Biacore T100), hIL-18Rα as surface ligand; Exp 1
Method: (§1) Surface Plasmon Resonance (SPR) was used to perform biophysical affinity measurements of second generation DR-IL-18 variants (binding to IL-18R vs IL-18BP). Experiments were conducted using a Biacore T100 instrument and carried out at 25° C. Biotinylated IL-18Rα or IL-18BP were immobilized onto a Biacore biotin capture chip (Series S CAP sensor chip, GE Healthcare) to yield an Rmax of ˜50 RU (IL-18Rα) or ˜10 RU (IL-18BP). Measurements were made with serial dilutions of the IL-18 variants in HEPES buffered Saline-P+ buffer (10 mM HEPES pH 7.4, 150 mM NaCl, 0.005% surfactant P20). The surface was regenerated by three 60-sec injections of regeneration buffer (3/4 (v/v) 8M guanidine hydrochloride with ¼ (v/v) 1M sodium hydroxide). Experiments were performed in multiple channels simultaneously for increased observations. All data were analyzed with the Biacore T100 evaluation software version 2.0 with a 1:1 Langmuir binding model.

[7] = target: T2, Human IL-18Rα ectodomain (amino acids …); assay: SPR (Biacore T100), hIL-18Rα as surface ligand; Exp 2
Method: as §1

[8] = target: T1, Human IL-18BP (amino acids 31-194), …; assay: on-yeast binding isotherms; 20 µM used for NBD; printed without '>'; yeast-displayed variant; ratio computed with 20 µM put in for NBD
[9] = target: T2, Human IL-18Rα ectodomain (amino acids …); assay: SPR (Biacore T100), hIL-18Rα as surface ligand, 1:1 Langmuir
Method: as §1

[10] = target: T2, Human IL-18Rα ectodomain (amino acids …); assay: SPR, apparent KD, first value of the cell
Method: as §1

[11] = target: T2, Human IL-18Rα ectodomain (amino acids …); assay: on-yeast binding isotherm (flow cytometry), drawn summary table, IL18Rα (KD)
Method: (§2) Individual colonies of IL-18 yeast were grown overnight at 30° C. in SDCAA liquid media and induced in SGCAA liquid media for 1 day at 20° C. IL-18 display levels on yeast were verified by flow cytometry using an anti-cMyc tag antibody (anti-myc-PE; Cell Signaling Technologies). Receptor staining with biotinylated IL-18Rα (with or without IL-18R β) or biotinylated IL-18BP was performed in PBS supplemented with 0.5% BSA and 2 mM EDTA (PBE) on ice. All analysis was performed on a Sony SA3800 flow cytometer.

[12] = target: T1, Human IL-18BP (amino acids 31-194), …; assay: SPR; KD(IL-18BP)/KD(IL-18Rα) normalized to WT IL-18; SPR; ratio from the bound KD BP >10,000 nM
Method: as §1

[13] = target: T2, Human IL-18Rα ectodomain (amino acids …); assay: SPR, apparent KD, second value of the cell
Method: as §1

[14] = target: T3, Mouse IL-18BP (amino acids 31-194), biotinylated (mouse, UniProt Q9Z0M9 29-193, biotin on the AviTag (BirA ligase)); assay: on-yeast binding isotherms; 10 µM used for NBD; yeast-displayed variant; ratio computed with 10 µM put in for NBD
T3 construct: also called mIL-18BP
T3 sequence: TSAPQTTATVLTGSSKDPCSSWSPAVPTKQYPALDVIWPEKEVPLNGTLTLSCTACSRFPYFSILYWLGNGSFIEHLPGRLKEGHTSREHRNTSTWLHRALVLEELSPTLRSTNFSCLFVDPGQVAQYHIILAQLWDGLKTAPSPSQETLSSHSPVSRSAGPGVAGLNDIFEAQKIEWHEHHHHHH
Method: as §2

[15] = target: T4, Mouse IL-18Rα ectodomain (amino acids 19-329), biotinylated (mouse, UniProt Q61098 19-329, biotin on the AviTag (BirA ligase)); assay: on-yeast binding isotherm (flow cytometry)
T4 construct: range 19-329; Secreted from Expi293 cells (H7 signal peptide removed); also called mIL-18Rα; mIL18Ra
T4 sequence: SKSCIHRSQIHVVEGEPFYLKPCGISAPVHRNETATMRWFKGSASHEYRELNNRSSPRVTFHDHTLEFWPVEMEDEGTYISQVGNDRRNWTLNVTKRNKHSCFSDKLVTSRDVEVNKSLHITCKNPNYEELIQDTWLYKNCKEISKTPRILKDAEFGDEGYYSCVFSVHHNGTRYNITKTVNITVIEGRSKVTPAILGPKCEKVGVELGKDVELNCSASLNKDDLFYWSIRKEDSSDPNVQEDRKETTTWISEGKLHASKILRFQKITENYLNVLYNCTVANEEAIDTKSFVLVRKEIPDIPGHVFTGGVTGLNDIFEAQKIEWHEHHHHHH
Method: as §2

[16] = target: T3, Mouse IL-18BP (amino acids 31-194), …; assay: SPR (Biacore T100), IL-18BP captured via biotin, IL-18 as analyte; SPR, soluble variant
Method: as §1, with “Experiments” for “Surface Plasmon Resonance (SPR) was used to perform biophysical affinity measurements of second generation DR-IL-18 variants (binding to IL-18R vs IL-18BP). Experiments”, “T100” for “T100 instrument”, “Saline-P+buffer” for “Saline-P+ buffer”, “1/4” for “¼”

[17] = target: T3, Mouse IL-18BP (amino acids 31-194), …; assay: yeast binding isotherms and SPR; members per FIG. 11A legend
Method: as §2
as §1, with “Experiments” for “Surface Plasmon Resonance (SPR) was used to perform biophysical affinity measurements of second generation DR-IL-18 variants (binding to IL-18R vs IL-18BP). Experiments”, “T100” for “T100 instrument”, “Saline-P+buffer” for “Saline-P+ buffer”, “1/4” for “¼”

[18] = target: T3, Mouse IL-18BP (amino acids 31-194), …; assay: on-yeast binding isotherms; KD ratio relative to WT IL-18; yeast-displayed variant; ratio normalized to WT, from the 10 µM placeholder
Method: as §2

[19] = target: T3, Mouse IL-18BP (amino acids 31-194), …; assay: SPR; KD ratio relative to WT IL-18; SPR; ratio normalized to WT
Method: as §1, with “Experiments” for “Surface Plasmon Resonance (SPR) was used to perform biophysical affinity measurements of second generation DR-IL-18 variants (binding to IL-18R vs IL-18BP). Experiments”, “T100” for “T100 instrument”, “Saline-P+buffer” for “Saline-P+ buffer”, “1/4” for “¼”

[20] = target: T3, Mouse IL-18BP (amino acids 31-194), …; assay: SPR; KD for IL-18BP over KD for IL-18Rα; SPR; ratio of two measured KD
Method: as §1, with “Experiments” for “Surface Plasmon Resonance (SPR) was used to perform biophysical affinity measurements of second generation DR-IL-18 variants (binding to IL-18R vs IL-18BP). Experiments”, “T100” for “T100 instrument”, “Saline-P+buffer” for “Saline-P+ buffer”, “1/4” for “¼”

[21] = target: T4, Mouse IL-18Rα ectodomain (amino acids …); assay: SPR (Biacore T100), receptor captured via biotin, IL-18 as analyte
Method: as §1, with “Experiments” for “Surface Plasmon Resonance (SPR) was used to perform biophysical affinity measurements of second generation DR-IL-18 variants (binding to IL-18R vs IL-18BP). Experiments”, “T100” for “T100 instrument”, “Saline-P+buffer” for “Saline-P+ buffer”, “1/4” for “¼”

B1: SEQ ID NO: 39 (human DR-IL-18 variant hA8) (ligand)
chain: YFGKLESRLSVIRNLNDQVLFIDQGNRPLFEDMTDSDCRDNAPRTIFIISKYKDKQPRAQAVTISVKCEKISTLSCENKIISFKEMNPPDNIKDTKSDIIFFQRDVPGHKHKMQFESSSYEGYFLACEKERDLFKLILKKEDELGDRSIMFTIQNED
notes: Engineered variant
[1]
  KD ratio IL-18BP/IL-18Rα: > 347
[2]
  Dissociation Constant Ratio normalized to WT IL-18: > 1170

B2: SEQ ID NO: 52 (human DR-IL-18 variant hH3) (ligand)
chain: B1 chain with Y1R, K51T, K55S, A59G, Q60K, I153V
notes: Engineered variant
[3]
  KD ratio IL-18BP/IL-18Rα: > 239
[4]
  Dissociation Constant Ratio normalized to WT IL-18: > 809

B3: SEQ ID NO: 90 (second generation human DR-IL-18 variant 6-27) (ligand)
chain: YFGKLESKLSVIRNLNDQVLFIDQGNRPLFEDMTDSDCRDNAPRTIFIISKYSDSRARGLAVTISVKCEKISTLSCENKIISFKEMNPPDNIKDTKSDIIFFARSVPGHGRKTQFESSSYEGYFLACEKERDLFKLILKKEDELGDRSIMFTVQNED
notes: Engineered variant; recombinant soluble analyte in SPR and cell assays
[5]
  Kd: 3.5 nM
[6]
  Kd: 3.48 nM
[7]
  Kd: 3.85 nM
[8]
  KD ratio IL-18BP/IL-18Rα: > 480
[9]
  koff: 0.00243 s⁻¹
  kon: 631000 M⁻¹ s⁻¹
[10]
  Kd: 3.9 nM
[11]
  Kd: 42 nM
[12]
  IL-18 BP:Rα Dissociation Constant Ratio: > 5.86e+06
[2]
  Dissociation Constant Ratio normalized to WT IL-18: > 7000
[13]
  Kd: 3.5 nM

B4: SEQ ID NO: 57 (human DR-IL-18 variant hB9) (ligand)
chain: RFGKHESKLSVIRNLNDQVLFIDQGNRPLFEDMTDSDCRDNAPRTIFIISTYRDSQPRGKAVTISVKCEKISTLSCENKIISFKEMNPPDNIKDTKSDIIFFERNVPGHKYKMQFESSSYEGYFLACEKERDLFKLILKKEDELGDRSIMFTVQNED
notes: Engineered variant
[3]
  KD ratio IL-18BP/IL-18Rα: > 157
[4]
  Dissociation Constant Ratio normalized to WT IL-18: > 534

B5: SEQ ID NO: 62 (murine DR-IL-18 variant mC1) (ligand)
chain: NFGRLHCTTAVIRNINDQVLFVDKRQPVFEDMTDIDQSASEPQTRLIIYAYVDRRLRGKAVTLSVKDSKMSTLSCKNKIISFEEMDPPENIDDIQSDLIFFQKKVPGHNKMEFESSLYEGHFLACQKEDDAFKLILKKKDENGDKSVMFTLTNLHQS
notes: Engineered variant
[14]
  KD ratio IL-18BP/IL-18Rα: > 233
[15]
  Kd: 43 nM
[16]
  Kd: 28700 nM
[17]
  Kd: > 1000 nM
[18]
  Dissociation Constant Ratio normalized to WT IL-18: > 1230
[19]
  Dissociation Constant Ratio normalized to WT IL-18: 1.44e+07
[20]
  KD ratio IL-18BP/IL-18Rα: 26300
[21]
  Kd: 1.09 nM
